In paper doi:10.1101/2021.09.01.458653 (bioRxiv, 2021):

Molecular target: RBD-Fc (secreted recombinant receptor-binding domain of SARS-CoV-2 spike) (SARS-CoV-2, UniProt P0DTC2)
Assay: immunoassay on cellulose filter paper discs

B1: Ty1-CBD bifunctional fusion protein (nanobody Ty1 fused to a cellulose-binding domain) (VHH)
VHH: QVQLVETGGGLVQPGGSLRLSCAASGFTFSSVYMNWVRQAPGKGPEWVSRISPNSGNIGYTDSVKGRFTISRDNAKNTLYLQMNNLKPEDTALYYCAIGLNLSSSSVRGQGTQVTVSS
binding result: binds

B2: Ty1 without CBD module (control protein) (VHH)
VHH: QVQLVETGGGLVQPGGSLRLSCAASGFTFSSVYMNWVRQAPGKGPEWVSRISPNSGNIGYTDSVKGRFTISRDNAKNTLYLQMNNLKPEDTALYYCAIGLNLSSSSVRGQGTQVTVSS
binding result: binds
